Source: patent US20180105835, “TARGETED RNA KNOCKDOWN AND KNOCKOUT BY TYPE III-A Csm COMPLEXES” (VILNIUS UNIVERSITY, published 2018)

Target: StCsm effector complex (Cas10-Csm2-Csm3-Csm4-Csm5, StCsm-40), wild type (Streptococcus thermophilus DGCC8004, UniProt A0A0A7HFE1;A0ABF7SXA0;A0A0A7HIF0;A0ABF7SXA2;A0ABF7SXA3 …)
Experiment: EMSA; gel shift, StCsm-40; value only in figure
Conditions: tags: N-terminal StrepII on Csm2; chain copies: Cas10:1 Csm2:3 Csm3:5 Csm4:1 Csm5:1 (stated); label: 5'-33P
Protocol: FIGS. 16A-B show in vitro cleavage activity of the StCsm targeted to the GFP transcript. Schematic representation of StCsm bound to the target RNA used for in vitro binding and cleavage assays is presented above the gels. RNA was 5′-end labeled with ³³P as indicated with asterisk. (FIG. 16A) Gel shift assay of RNA binding by StCsm-40. The binding reactions contained the ³³P-labeled GFP RNA (0.5 nM) and StCsm-40 at concentrations indicated by each lane. Samples were analyzed by PAGE under non-denaturating conditions. (FIG. 16B) StCsm-40 cleavage assay. Cleavage reactions were performed at 25° C. for indicated time intervals in the Reaction buffer supplemented with 10 mM Mg-acetate, 8 nM GFP RNA substrate and 160 nM StCsm-40. Samples were analyzed by denaturing PAGE, followed by phosphorimaging. […]
Binding assays were performed by incubating different amounts of Csm complexes with 0.5 nM of ³²P-5′-labeled NA in the Binding buffer (40 mM Tris, 20 mM acetic acid (pH 8.4 at 25° C.), 1 mM EDTA, 0.1 mg/ml BSA, 10% (v/v) glycerol). […] The Kd for NA binding by Csm-72 and Csm-40 was evaluated assuming the complex concentration at which half of the substrate is bound as a rough estimate of Kd value. For binding competition assay 0.5 nM ³²P-labelled S3/1 RNA was mixed with 0.5-5000 nM of unlabelled competitor NA and 0.3 nM StCsm-40, and analyzed by EMSA.

B1: jGFP crRNA 40 nt ; jGFP target RNA (coding-strand DNA sequence printed) (ssRNA ; ssRNA)
RNA 1: ACGGAAACAUAACCUUCGGGCAUGGCACUCUUGAAAAAGU
RNA 2: CAUGACUUUUUCAAGAGUGCCAUGCCCGAAGGUUAU
B1: binds.
